Values joined by “and” are separate entries in the source; they are usually repeats but may differ in a detail not shown here. Equal entries are not always repeated.
Experiments:
[1] = target: HALO::PLP^584-1811 WT (purified from Sf9) (Drosophila); test: mass photometry
[2] = target: KHC + LC (Kinesin-1 HC-LCs complex) (Drosophila) (UniProt P17210); test: BLI
[3] = target: KHC^Δh2 + LC (Drosophila) (UniProt P17210); test: BLI

HALO::PLP^584-1811 WT (purified from Sf9) (domain or fragment)
stoichiometry N [1]: 2 and 4 | Kd [2]: 1.7 µM | Kd [3]: 0.065 µM

From publication PMC9361567
